This series can be described thus: total protein half-life in vivo (active degradation + dilution); higher = more stable protein.
The mark [1] stands for this setting: E. coli NCM3722 delta-clpP delta-lon delta-hslV, growth: N-lim chemostat, doubling time 6 h.
Where [2] appears, read: E. coli NCM3722 delta-clpP, growth: N-lim chemostat, doubling time 6 h.
Where [3] appears, read: E. coli NCM3722 delta-hslV, growth: N-lim chemostat, doubling time 6 h.
[4] abbreviates: E. coli NCM3722 delta-lon, growth: N-lim chemostat, doubling time 6 h.
Setting [5] is: E. coli NCM3722 delta-smpB, growth: N-lim chemostat, doubling time 6 h.
Setting [6] is: wild type E. coli NCM3722, growth: C-lim chemostat, doubling time 3 h.
Where [7] appears, read: wild type E. coli NCM3722, growth: C-lim chemostat, doubling time 6 h.
Where [8] appears, read: wild type E. coli NCM3722, growth: C-lim chemostat, doubling time 12 h.
[9] abbreviates: wild type E. coli NCM3722, growth: N-lim chemostat, doubling time 6 h.
[10] abbreviates: wild type E. coli NCM3722, growth: N-lim chemostat, doubling time 12 h.
Setting [11] is: wild type E. coli NCM3722, growth: P-lim chemostat, doubling time 6 h.
The mark [12] stands for this setting: wild type E. coli NCM3722, growth: P-lim chemostat, doubling time 12 h.

± gives the standard deviation of the averaged measurements.

“MKQIRLLAQYYVDLMMKLGLVRFSMLLALALVVLAIVVQMAVTMVLHGQVESIDVIRSIFFGLLITPWAVYFLSVVVEQLEESRQRLSRLVQKLEEMRERDLSLNVQLKDNIAQLNQEIAVREKAEAELQETFGQLKIEIKEREETQIQLEQQSSFLRSFLDASPDLVFYRNEDKEFSGCNRAMELLTGKSEKQLVHLKPADVYSPEAAAKVIETDEKVFRHNVSLTYEQWLDYPDGRKACFEIRKVPYYDRVGKRHGLMGFGRDITERKRYQDALERASRDKTTFISTISHELRTPLNGIVGLSRILLDTELTAEQEKYLKTIHVSAVTLGNIFNDIIDMDKMERRKVQLDNQPVDFTSFLADLENLSALQAQQKGLRFNLEPTLPLPHQVITDGTRLRQILWNLISNAVKFTQQGQVTVRVRYDEGDMLHFEVEDSGIGIPQDELDKIFAMYYQVKDSHGGKPATGTGIGLAVSRRLAKNMGGDITVTSEQGKGSTFTLTIHAPSVAEEVDDAFDEDDMPLPALNVLLVEDIELNVIVARSVLEKLGNSVDVAMTGKAALEMFKPGEYDLVLLDIQLPDMTGLDISRELTKRYPREDLPPLVALTANVLKDKQEYLNAGMDDVLSKPLSVPALTAMIKKFWDTQDDEESTVTTEENSKSEALLDIPMLEQYLELVGPKLITDGLAVFEKMMPGYVSVLESNLTAQDKKGIVEEGHKIKGAAGSVGLRHLQQLGQQIQSPDLPAWEDNVGEWIEEMKEEWRHDVEVLKAWVAKATKK [P0AEC3]”: the “total protein half-life in vivo” value was found to be 5.863 ± 0.04 h under setting [1]; 6.27 ± 0.077 h under setting [2]; 5.797 ± 0.042 h under setting [3]; 5.21 ± 0.38 h under setting [4]; 5.568 ± 0.012 h under setting [5]; 3.09 ± 0.14 h under setting [6]. In addition, the “total protein half-life in vivo” value is 5.88 ± 0.086 h under setting [7]; 10.9 ± 0.17 h under setting [8]; 5.54 ± 0.18 h under setting [9]; 10.5 ± 1 h under setting [10]; 5.69 ± 0.2 h under setting [11]; 11.4 ± 0.22 h under setting [12].

For “MSSNTFTLGTKSVNRLGYGAMQLAGPGVFGPPRDRHVAITVLREALALGVNHIDTSDFYGPHVTNQIIREALYPYSDDLTIVTKIGARRGEDASWLPAFSPAELQKAVHDNLRNLGLDVLDVVNLRVMMGDGHGPAEGSIEASLTVLAEMQQQGLVKHIGLSNVTPTQVAEARKIAEIVCVQNEYNIAHRADDAMIDALAHDGIAYVPFFPLGGFTPLQSSTLSDVAASLGATPMQVALAWLLQRSPNILLIPGTSSVAHLRENMAAEKLHLSEEVLSTLDGISRE”, the “total protein half-life in vivo” value runs as follows: under setting [1], 5.35 ± 0.76 h; under setting [2], 4.8 ± 0.14 h; under setting [3], 4.87 h; under setting [4], 4.74 ± 1 h; under setting [5], 4.18 ± 0.88 h; under setting [6], 3.27 ± 0.3 h. Further, the “total protein half-life in vivo” value was 5.527 ± 0.039 h under setting [7]; 10.8 ± 0.75 h under setting [8]; 5.01 h under setting [9]; 8.77 h under setting [10]; 6.443 ± 0.061 h under setting [11]; 12.2 ± 0.21 h under setting [12].

Consider “MSGAFNNDGRGISPLIATSWERCNKLMKRETWNVPHQAQGVTFASIYRRKKAMLTLGQAALEDAWEYMAPRECALFILDETACILSRNGDPQTLQQLSALGFNDGTYCAEGIIGTCALSLAAISGQAVKTMADQHFKQVLWNWAFCATPLFDSKGRLTGTIALACPVEQTTAADLPLTLAIAREVGNLLLTDSLLAETNRHLNQLNALLESMDDGVISWDEQGNLQFINAQAARVLRLDATASQGRAITELLTLPAVLQQAIKQAHPLKHVEATFESQHQFIDAVITLKPIIETQGTSFILLLHPVEQMRQLMTSQLGKVSHTFAHMPQDDPQTRRLIHFGRQAARSSFPVLLCGEEGVGKALLSQAIHNESERAAGPYIAVNCELYGDAALAEEFIGGDRTDNENGRLSRLELAHGGTLFLEKIEYLAVELQSALLQVIKQGVITRLDARRLIPIDVKVIATTTADLAMLVEQNRFSRQLYYALHAFEITIPPLRMRRGSIPALVNNKLRSLEKRFSTRLKIDDDALARLVSCAWPGNDFELYSVIENLALSSDNGRIRVSDLPEHLFTEQATDDVSATRLSTSLSFAEVEKEAIINAAQVTGGRIQEMSALLGIGRTTLWRKMKQHGIDAGQFKRRV”, for which the “total protein half-life in vivo” value reads like this: under setting [1], 6.1 ± 0.41 h; under setting [2], 4.96 h; under setting [3], 3.96 h; under setting [5], 4.08 ± 0.059 h; under setting [6], 2.56 ± 0.055 h; under setting [7], 4.31 ± 1 h. Moreover, the “total protein half-life in vivo” value is, setting by setting: under setting [8], 9.42 ± 0.77 h; under setting [9], 4.53 ± 0.17 h; under setting [10], 8.2 ± 0.45 h; under setting [11], 4.11 ± 0.61 h; under setting [12], 7.3 ± 0.38 h.

On to “MKIGIIGAMEEEVTLLRDKIENRQTISLGGCEIYTGQLNGTEVALLKSGIGKVAAALGATLLLEHCKPDVIINTGSAGGLAPTLKVGDIVVSDEARYHDADVTAFGYEYGQLPGCPAGFKADDKLIAAAEACIAELNLNAVRGLIVSGDAFINGSVGLAKIRHNFPQAIAVEMEATAIAHVCHNFNVPFVVVRAISDVADQQSHLSFDEFLAVAAKQSSLMVESLVQKLAHG [P0AF12]”, for which the “total protein half-life in vivo” value was 4.9 ± 0.49 h under setting [1]; 4.39 ± 0.069 h under setting [2]; 4.42 ± 0.2 h under setting [3]; 5.43 ± 0.68 h under setting [5]; 3.27 ± 0.28 h under setting [6]; 6.36 ± 0.19 h under setting [7]. The “total protein half-life in vivo” value was determined as 12.6 ± 1.4 h under setting [8]; 4.85 ± 0.48 h under setting [9]; 8.24 ± 0.78 h under setting [10]; 5.73 ± 0.097 h under setting [11]; 12.1 ± 0.39 h under setting [12].

As for “MRNTLIPILVAICLFITGVAILNIQLWYSAKAEYLAGARYAANNINHILEEASQATQTAVNIAGKECNLEEQYQLGTEAALKPHLRTIIILKQGIVWCTSLPGNRVLLSRIPVFPDSNLLLAPAIDTVNRLPILLYQNQFADTRILVTISDQHIRGALNVPLKGVRYVLRVADDIIGPTGDVMTLNGHYPYTEKVHSTKYHFTIIFNPPPLFSFYRLIDKGFGILIFILLIACAAAFLLDRYFNKSATPEEILRRAINNGEIVPFYQPVVNGREGTLRGVEVLARWKQPHGGYISPAAFIPLAEKSGLIVPLTQSLMNQVARQMNAIASKLPEGFHIGINFSASHIISPTFVDECLNFRDSFTRRDLNLVLEVTEREPLNVDESLVQRLNILHENGFVIALDDFGTGYSGLSYLHDLHIDYIKIDHSFVGRVNADPESTRILDCVLDLARKLSISIVAEGVETKEQLDYLNQNYITFQQGYYFYKPVTYIDLVKIILSKPKVKVVVE”, the “total protein half-life in vivo” value by setting is: under setting [1], 3.79 h; under setting [4], 4.37 h; under setting [5], 6.19 ± 0.68 h; under setting [9], 4.59 h; under setting [10], 11.9 ± 0.31 h.

Turning to “MNKFEDIRGVAFDLDGTLVDSAPGLAAAVDMALYALELPVAGEERVITWIGNGADVLMERALTWARQERATQRKTMGKPPVDDDIPAEEQVRILRKLFDRYYGEVAEEGTFLFPHVADTLGALQAKGLPLGLVTNKPTPFVAPLLEALDIAKYFSVVIGGDDVQNKKPHPDPLLLVAERMGIAPQQMLFVGDSRNDIQAAKAAGCPSVGLTYGYNYGEAIDLSQPDVIYQSINDLLPALGLPHSENQESKND”, the “total protein half-life in vivo” value was 3.53 ± 0.37 h under setting [1]; 3.12 ± 0.096 h under setting [2]; 2.83 h under setting [3]; 4.24 ± 1.1 h under setting [4]; 3.05 ± 0.14 h under setting [5]; 3.21 ± 0.34 h under setting [6]. Moreover, the “total protein half-life in vivo” value runs as follows: under setting [7], 5.56 ± 0.92 h; under setting [8], 8.69 ± 0.53 h; under setting [9], 2.87 ± 0.17 h; under setting [10], 4.01 ± 0.23 h; under setting [11], 4.14 ± 1 h; under setting [12], 10.5 ± 1.2 h.

For the origin of these results see the supplement of paper PMC11246515.
